# Read-outs that look alike come from different tables or passages of the source.
# Experiments:
# NCI-H292 tumour model = experiment: Anti-EGFR ADCs in the NCI-H292 tumour model on single treatment; assay type: in vivo, female NMRI-nude mice; conditions: 2.5 mg/kg once on day 9; day 25
# Procedure: Growth Inhibition/Regression of Experimental Tumours in the Mouse
# The tumour area is determined as length×width.
# When after the end of the treatment all groups of the experiment are terminated at the same time, the tumours can be removed and weighed.
# C-6c. Efficacy of the Anti-EGFR Antibody Drug Conjugates in the NCI-H292 Tumour Model on Single Treatment
# After the treatment, the tumour growth is monitored up to day 25.
# [1] = target: T1, recombinant human TWEAKR protein (TPP-2305) (Homo sapiens, UniProt Q9NP84); experiment: Binding affinities by Biacore analysis; conditions: monovalent
# T1 construct: purchased Fitzgerald Inc 30R-AT080
# Procedure: Determination of Binding Affinities by Biacore Analysis:
# Binding affinities of anti-TWEAKR antibodies were examined using surface plasmon resonance analysis on a Biacore T100 instrument (GE Healthcare Biacore, Inc.). The antibodies were immobilized on a CM5 sensor chip using an indirect capture reagent, anti-human IgG(Fc). […] Anti-TWEAKR antibodies were injected at a concentration of 10 μg/ml at […] for 10 sec.
# Sensorgrams were generated after in-line reference cell correction, followed by subtraction of the buffer sample. The dissociation constant (KD) was calculated based on the ratio of association (kon) and dissociation (koff) constants, obtained by fitting sensorgrams using a 1:1 first order binding model.
# TWEAKR-Fc WT (TPP-599) = target: T2, TWEAKR-Fc WT (TPP-599) (Homo sapiens, UniProt Q9NP84); experiment: ELISA, effect of TWEAKR-Fc muteins on antibody binding; conditions: 62 ng/ml TWEAKR-Fc coated, biotinylated IgG from 100 nM
# T2 construct: hTNFRSF12 amino acids a28-80-hIgG1-Fc
# Procedure: (§1) Effect of TWEAKR-Fc Muteins on the Antibody Affinity
# (§2) To this end, the full-length ectodomain (amino acids 28-80) having the individual amino acid substitutions below were expressed and purified as Fc fusion proteins: T33Q; S40R; W42A; M50A; R56P; H60K; L65Q.
# (§3) Detection was carried out using streptavidin-HRP and Amplex Red.
# (§4) The dose-reaction data were fitted and the IC50s were determined.
# TWEAKR-Fc mutein H60K = target: T3, TWEAKR-Fc mutein H60K (Homo sapiens, UniProt Q9NP84, H60K); experiment: as above; conditions: 62 ng/ml mutein coated, biotinylated IgG from 100 nM
# T3 construct: the full-length ectodomain (amino acids 28-80); made in house
# Procedure: as §1, §2, §3, §4
# TWEAKR-Fc mutein L65Q = target: T4, TWEAKR-Fc mutein L65Q (Homo sapiens, UniProt Q9NP84, L65Q); experiment: as above; conditions: 62 ng/ml mutein coated, biotinylated IgG from 100 nM
# T4 construct: the full-length ectodomain (amino acids 28-80); made in house
# Procedure: as §1, §2, §3, §4
# TWEAKR-Fc mutein M50A = target: T5, TWEAKR-Fc mutein M50A (Homo sapiens, UniProt Q9NP84, M50A); experiment: as above; conditions: 62 ng/ml mutein coated, biotinylated IgG from 100 nM
# T5 construct: the full-length ectodomain (amino acids 28-80); made in house
# Procedure: as §1, §2, §3, §4
# TWEAKR-Fc mutein R56P = target: T6, TWEAKR-Fc mutein R56P (Homo sapiens, UniProt Q9NP84, R56P); experiment: as above; conditions: 62 ng/ml mutein coated, biotinylated IgG from 100 nM
# T6 construct: the full-length ectodomain (amino acids 28-80); made in house
# Procedure: as §1, §2, §3, §4
# TWEAKR-Fc mutein S40R = target: T7, TWEAKR-Fc mutein S40R (Homo sapiens, UniProt Q9NP84, S40R); experiment: as above; conditions: 62 ng/ml mutein coated, biotinylated IgG from 100 nM
# T7 construct: the full-length ectodomain (amino acids 28-80); made in house
# Procedure: as §1, §2, §3, §4
# TWEAKR-Fc mutein T33Q = target: T8, TWEAKR-Fc mutein T33Q (Homo sapiens, UniProt Q9NP84, T33Q); experiment: as above; conditions: 62 ng/ml mutein coated, biotinylated IgG from 100 nM
# T8 construct: the full-length ectodomain (amino acids 28-80); made in house
# Procedure: as §1, §2, §3, §4
# TWEAKR-Fc mutein W42A = target: T9, TWEAKR-Fc mutein W42A (Homo sapiens, UniProt Q9NP84, W42A); experiment: as above; conditions: 62 ng/ml mutein coated, biotinylated IgG from 100 nM
# T9 construct: the full-length ectodomain (amino acids 28-80); made in house
# Procedure: as §1, §2, §3, §4
# [2] = target: T1, recombinant human TWEAKR protein (TPP-2305); conditions: published data (WO2009/020933, WO2009/140177, literature); cited from earlier work
Molecule,ka [1],kd [1],IC50 (TWEAKR-Fc WT (TPP-599)),IC50 (TWEAKR-Fc mutein H60K),IC50 (TWEAKR-Fc mutein L65Q),IC50 (TWEAKR-Fc mutein M50A),IC50 (TWEAKR-Fc mutein R56P),IC50 (TWEAKR-Fc mutein S40R),IC50 (TWEAKR-Fc mutein T33Q),IC50 (TWEAKR-Fc mutein W42A),T/C area (NCI-H292 tumour model),T/C weight (NCI-H292 tumour model),also measured
"CC(C)(C)[C@H](c1nc(-c2cc(F)ccc2F)cn1Cc1ccccc1)N(CCCN)C(=O)CO [toxophor A, N-(3-aminopropyl)-N-{(1R)-1-[1-benzyl-4-(2,5-difluorophenyl)-1H-imidazol-2-yl]-2,2-dimethylpropyl}-2-hydroxyacetamide]",–,–,–,–,–,–,–,–,–,–,0.87,0.82,–
"CC(C)(C)[C@H](c1nc(-c2cc(F)ccc2F)cn1Cc1ccccc1)N(CC[C@@H](N)CF)C(=O)CO [toxophor B, N-[(3R)-3-amino-4-fluorobutyl]-N-{(1R)-1-[1-benzyl-4-(2,5-difluorophenyl)-1H-imidazol-2-yl]-2,2-dimethylpropyl}-2-hydroxyacetamide]",–,–,–,–,–,–,–,–,–,–,0.57,0.40,–
"136.1: ""agonistic antibodies already described [e.g. PDL-192(TPP-1104), P4A8(TPP-1324), 136.1(TPP-2194)]"" (protein, Mus Musculus) light: DIVLTQSPASLTVSLGQRATISCRASQSVSTSSYSYMQWYQQRPGQPPKLLIKYATNLDSGVPARFSGSGSGTDFTLNIHPVEEEDAATYYCQHSWEIPYTFGGGTKLEIKRADAAPTVSIFPPSSEQLTSGGASVVCFLNNFYPKDINVKWKIDGSERQNGVLNSWTDQDSKDSTYSMSSTLTLTKDEYERHNSYTCEATHKTSTSPIVKSFNRNEC heavy: EVKLEESGGGLVQPGGSMKLSCVASGFTFNNYWMSWVRQSPEKGLEWLAEIRLKSDNYATHYAESVKGKFTISRDDSKSRLYLQMNNLRAENTGIYYCTGGFADYFDYWGQGTTLTVSSAKTTAPSVYPLAPVCGDTTGSSVTLGCLVKGYFPEPVTLTWNSGSLSSGVHTFPAVLQSDLYTLSSSVTVTSSTWPSQSITCNVAHPASSTKVDKKIEPRGPTIKPCPPCKCPAPNLLGGPSVFIFPPKIKDVLMISLSPIVTCVVVDVSEDDPDVQISWFVNNVEVHTAQTQTHREDYNSTLRVVSALPIQHQDWMSGKEFKCKVNNKDLPAPIERTISKPKGSVRAPQVYVLPPPEEEMTKKQVTLTCMVTDFMPEDIYVEWTNNGKTELNYKNTEPVLDSDGSYFMYSKLRVEKKNWVERNSYSCSVVHEGLHNHHTTKSFSRTPG",–,–,–,–,–,–,–,–,–,–,–,–,Kd [2]: 0.7 nM

# Further lines, with some results ahead:
ka [1],kd [1],IC50 (TWEAKR-Fc WT (TPP-599)),IC50 (TWEAKR-Fc mutein H60K),IC50 (TWEAKR-Fc mutein L65Q),IC50 (TWEAKR-Fc mutein M50A),IC50 (TWEAKR-Fc mutein R56P),IC50 (TWEAKR-Fc mutein S40R),IC50 (TWEAKR-Fc mutein T33Q),IC50 (TWEAKR-Fc mutein W42A),Molecule,T/C area (NCI-H292 tumour model),T/C weight (NCI-H292 tumour model),also measured
2.31e+06 M⁻¹ s⁻¹,0.00122 s⁻¹,0.001 to 0.15 nM,0.001 to 0.15 nM,0.001 to 0.15 nM,0.001 to 0.15 nM,0.001 to 0.15 nM,0.001 to 0.15 nM,0.001 to 0.15 nM,> 50 nM,"P3G5(TPP-2195): comparative anti-TWEAKR antibody; variable domains from WO2009/140177, constant region added, ""resulting in full-length IgGs"" (protein, Mus Musculus) light: DIVLTQSPASLAVSLGQRATISCRANKSVSTSSYSYMHWYQQKPGQPPKLLIKYASNLESGVPARFSGSGSGTDFILNIHPVEEEDAATYYCQHSRELPFTFGSGTKLEIKRADAAPTVSIFPPSSEQLTSGGASVVCFLNNFYPKDINVKWKIDGSERQNGVLNSWTDQDSKDSTYSMSSTLTLTKDEYERHNSYTCEATHKTSTSPIVKSFNRNEC heavy: QVQLQQSGPEVVRPGVSVKISCKGSGYTFTDYGIHWVKQSHAKSLEWIGVISTYNGYTNYNQKFKGKATMTVDKSSSTAYMELARLTSEDSAIYYCARAYYGNLYYAMDYWGQGTSVTVSSAKTTAPSVYPLAPVCGDTTGSSVTLGCLVKGYFPEPVTLTWNSGSLSSGVHTFPAVLQSDLYTLSSSVTVTSSTWPSQSITCNVAHPASSTKVDKKIEPRGPTIKPCPPCKCPAPNLLGGPSVFIFPPKIKDVLMISLSPIVTCVVVDVSEDDPDVQISWFVNNVEVHTAQTQTHREDYNSTLRVVSALPIQHQDWMSGKEFKCKVNNKDLPAPIERTISKPKGSVRAPQVYVLPPPEEEMTKKQVTLTCMVTDFMPEDIYVEWTNNGKTELNYKNTEPVLDSDGSYFMYSKLRVEKKNWVERNSYSCSVVHEGLHNHHTTKSFSRTPG",–,–,–
1.32e+06 M⁻¹ s⁻¹,0.000564 s⁻¹,–,–,–,–,–,–,–,–,"P2D3(TPP-2196): comparative anti-TWEAKR antibody; variable domains from the patent literature, constant region added, ""resulting in full-length IgGs"" (protein, Mus Musculus) light: DIVLTQSPASLAVSLGQRATISCRASKSVSTSSYSYMHWYQQKPGQPPKLLIKYTSNLESGVPARFSGSGSGTDFILNIHPVEEEDAATYYCQHSRELPWTFGGGTKLEIKRADAAPTVSIFPPSSEQLTSGGASVVCFLNNFYPKDINVKWKIDGSERQNGVLNSWTDQDSKDSTYSMSSTLTLTKDEYERHNSYTCEATHKTSTSPIVKSFNRNEC heavy: QVSLKESGPGILQPSQTLSLTCSFSGFSLSTSGMGVSWIRQPSGKGLEWLAHIYWDDDKRYNPSLKSRLTISKDTSRNQVFLKITSVDTADTATYYCARRGPDYYGYYPMDYWGQGTSVTVSAKTTAPSVYPLAPVCGDTTGSSVTLGCLVKGYFPEPVTLTWNSGSLSSGVHTFPAVLQSDLYTLSSSVTVTSSTWPSQSITCNVAHPASSTKVDKKIEPRGPTIKPCPPCKCPAPNLLGGPSVFIFPPKIKDVLMISLSPIVTCVVVDVSEDDPDVQISWFVNNVEVHTAQTQTHREDYNSTLRVVSALPIQHQDWMSGKEFKCKVNNKDLPAPIERTISKPKGSVRAPQVYVLPPPEEEMTKKQVTLTCMVTDFMPEDIYVEWTNNGKTELNYKNTEPVLDSDGSYFMYSKLRVEKKNWVERNSYSCSVVHEGLHNHHTTKSFSRTPG",–,–,Kd ([1]; read-out: KD (n M )): 0.4 nM
3.84e+07 M⁻¹ s⁻¹,0.0324 s⁻¹,0.001 to 0.15 nM,0.001 to 0.15 nM,0.001 to 0.15 nM,0.001 to 0.15 nM,> 50 nM,0.001 to 0.15 nM,0.001 to 0.15 nM,> 50 nM,"136.1(TPP-2194): comparative anti-TWEAKR antibody; variable domains from WO2009/020933, constant region added, ""resulting in full-length IgGs"" (protein, Mus Musculus) light: DIVLTQSPASLTVSLGQRATISCRASQSVSTSSYSYMQWYQQRPGQPPKLLIKYATNLDSGVPARFSGSGSGTDFTLNIHPVEEEDAATYYCQHSWEIPYTFGGGTKLEIKRADAAPTVSIFPPSSEQLTSGGASVVCFLNNFYPKDINVKWKIDGSERQNGVLNSWTDQDSKDSTYSMSSTLTLTKDEYERHNSYTCEATHKTSTSPIVKSFNRNEC heavy: EVKLEESGGGLVQPGGSMKLSCVASGFTFNNYWMSWVRQSPEKGLEWLAEIRLKSDNYATHYAESVKGKFTISRDDSKSRLYLQMNNLRAENTGIYYCTGGFADYFDYWGQGTTLTVSSAKTTAPSVYPLAPVCGDTTGSSVTLGCLVKGYFPEPVTLTWNSGSLSSGVHTFPAVLQSDLYTLSSSVTVTSSTWPSQSITCNVAHPASSTKVDKKIEPRGPTIKPCPPCKCPAPNLLGGPSVFIFPPKIKDVLMISLSPIVTCVVVDVSEDDPDVQISWFVNNVEVHTAQTQTHREDYNSTLRVVSALPIQHQDWMSGKEFKCKVNNKDLPAPIERTISKPKGSVRAPQVYVLPPPEEEMTKKQVTLTCMVTDFMPEDIYVEWTNNGKTELNYKNTEPVLDSDGSYFMYSKLRVEKKNWVERNSYSCSVVHEGLHNHHTTKSFSRTPG",–,–,–
